From article PMC11352460, “RILP Induces Cholesterol Accumulation in Lysosomes by Inhibiting Endoplasmic Reticulum–Endolysosome Interactions” (Cells, 2024)
Each block holds one binder with its values, some of them ahead of it.

Key:
His-ORP1L = biological target: T1, His-ORP1L (UniProt Q9BXW6-1 1-950); assay: pull-down; in vitro binding: purified prokaryotic expressed His-ORP1L or His-ORP1L(336-950aa) with increasing amounts of His-RILP, incubated with GST-VAPa(1-225aa) retained on GST beads; ORP1L bound assessed by Western blot; conditions: both partners purified
T1 construct: ORP1L in pET-28a; source: prokaryotic expressed, purified
T1 sequence (looked up): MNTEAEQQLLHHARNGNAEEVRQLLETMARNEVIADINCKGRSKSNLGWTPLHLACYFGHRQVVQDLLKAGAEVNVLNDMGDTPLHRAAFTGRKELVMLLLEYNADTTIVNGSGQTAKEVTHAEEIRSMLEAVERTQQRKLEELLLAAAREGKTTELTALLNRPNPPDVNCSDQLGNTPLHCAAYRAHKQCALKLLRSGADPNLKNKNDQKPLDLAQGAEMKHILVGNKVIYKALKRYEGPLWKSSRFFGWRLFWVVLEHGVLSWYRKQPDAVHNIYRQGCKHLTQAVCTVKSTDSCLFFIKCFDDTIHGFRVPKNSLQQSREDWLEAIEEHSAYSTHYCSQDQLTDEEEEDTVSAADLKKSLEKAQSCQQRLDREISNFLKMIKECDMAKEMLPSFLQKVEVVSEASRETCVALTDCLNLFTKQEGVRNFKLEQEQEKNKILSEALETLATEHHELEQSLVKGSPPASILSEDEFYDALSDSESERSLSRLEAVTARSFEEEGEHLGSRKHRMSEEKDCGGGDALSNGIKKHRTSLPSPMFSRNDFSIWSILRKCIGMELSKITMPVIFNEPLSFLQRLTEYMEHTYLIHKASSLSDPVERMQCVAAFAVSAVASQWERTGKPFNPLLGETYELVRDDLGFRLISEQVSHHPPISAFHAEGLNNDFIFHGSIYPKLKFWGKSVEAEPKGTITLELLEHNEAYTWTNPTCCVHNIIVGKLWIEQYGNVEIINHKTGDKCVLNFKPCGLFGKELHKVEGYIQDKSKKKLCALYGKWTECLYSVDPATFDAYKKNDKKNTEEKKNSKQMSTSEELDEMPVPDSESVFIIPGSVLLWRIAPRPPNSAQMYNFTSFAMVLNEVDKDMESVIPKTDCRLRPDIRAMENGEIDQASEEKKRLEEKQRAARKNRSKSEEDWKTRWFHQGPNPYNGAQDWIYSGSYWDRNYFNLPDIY

His-ORP1L(336-950aa) = biological target: T2, His-ORP1L(336-950aa) (UniProt Q9BXW6-1 336-950); assay: as above; conditions: both partners purified
T2 construct: source: prokaryotic expressed, purified
T2 sequence (looked up): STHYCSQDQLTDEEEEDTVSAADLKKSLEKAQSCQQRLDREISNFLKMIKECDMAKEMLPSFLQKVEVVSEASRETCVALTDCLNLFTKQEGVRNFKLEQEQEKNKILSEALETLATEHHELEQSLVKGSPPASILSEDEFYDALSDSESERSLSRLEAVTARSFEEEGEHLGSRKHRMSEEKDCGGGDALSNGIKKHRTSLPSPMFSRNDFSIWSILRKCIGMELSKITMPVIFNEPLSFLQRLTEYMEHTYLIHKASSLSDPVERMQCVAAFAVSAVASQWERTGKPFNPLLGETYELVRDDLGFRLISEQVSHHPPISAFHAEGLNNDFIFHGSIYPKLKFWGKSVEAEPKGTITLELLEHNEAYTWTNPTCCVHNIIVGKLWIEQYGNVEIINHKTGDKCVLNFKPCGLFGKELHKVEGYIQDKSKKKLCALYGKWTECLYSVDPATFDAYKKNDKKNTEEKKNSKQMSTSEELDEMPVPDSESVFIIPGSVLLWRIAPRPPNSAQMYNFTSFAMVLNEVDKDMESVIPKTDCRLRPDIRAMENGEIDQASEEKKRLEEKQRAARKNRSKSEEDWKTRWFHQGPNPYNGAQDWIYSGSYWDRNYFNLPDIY

binding result (His-ORP1L): binds
binding result (His-ORP1L(336-950aa)): binds
B1: GST-VAPa(1-225aa) (domain or fragment, UniProt Q9P0L0 1-225, looked up)
chain: MASASGAMAKHEQILVLDPPTDLKFKGPFTDVVTTNLKLRNPSDRKVCFKVKTTAPRRYCVRPNSGIIDPGSTVTVSVMLQPFDYDPNEKSKHKFMVQTIFAPPNTSDMEAVWKEAKPDELMDSKLRCVFEMPNENDKLNDMEPSKAVPLNASKQDGPMPKPHSVSLNDTETRKLMEECKRLQGEMMKLSEENRHLRDEGLRLRKVAHSDKPGSTSTASFRDNVT
notes: VAP-A (vesicle-associated membrane protein-associated protein A) residues 1-225, the cytoplasmic region; subcloned into pGEX-4T-1; also called GST-tagged VAP-A(1-225aa); source: prokaryotic expressed, retained on GST beads (GST-Sepharose 4B resin)

binding result (His-ORP1L(336-950aa)): binds
B2: His-RILP (natural protein, UniProt Q96NA2 1-401, looked up)
chain: MEPRRAAPGVPGWGSREAAGSASAAELVYHLAGALGTELQDLARRFGPEAAAGLVPLVVRALELLEQAAVGPAPDSLQVSAQPAEQELRRLREENERLRRELRAGPQEERALLRQLKEVTDRQRDELRAHNRDLRQRGQETEALQEQLQRLLLVNAELRHKLAAMQTQLRAAQDRERERQQPGEAATPQAKERARGQAGRPGHQHGQEPEWATAGAGAPGNPEDPAEAAQQLGRPSEAGQCRFSREEFEQILQERNELKAKVFLLKEELAYFQRELLTDHRVPGLLLEAMKVAVRKQRKKIKAKMLGTPEEAESSEDEAGPWILLSDDKGDHPPPPESKIQSFFGLWYRGKAESSEDETSSPAPSKLGGEEEAQPQSPAPDPPCSALHEHLCLGASAAPEA
notes: RILP in pET-28a; source: prokaryotic expressed, purified
